The target of experiment [1] is T1, human Napi2a-mCherry on HEK293 cells (human, UniProt Q06495 1-639).
T1 construct: whole, on cells; also called Napi2a (SLC34A1); not shown: mCherry fusion
T1 sequence (looked up): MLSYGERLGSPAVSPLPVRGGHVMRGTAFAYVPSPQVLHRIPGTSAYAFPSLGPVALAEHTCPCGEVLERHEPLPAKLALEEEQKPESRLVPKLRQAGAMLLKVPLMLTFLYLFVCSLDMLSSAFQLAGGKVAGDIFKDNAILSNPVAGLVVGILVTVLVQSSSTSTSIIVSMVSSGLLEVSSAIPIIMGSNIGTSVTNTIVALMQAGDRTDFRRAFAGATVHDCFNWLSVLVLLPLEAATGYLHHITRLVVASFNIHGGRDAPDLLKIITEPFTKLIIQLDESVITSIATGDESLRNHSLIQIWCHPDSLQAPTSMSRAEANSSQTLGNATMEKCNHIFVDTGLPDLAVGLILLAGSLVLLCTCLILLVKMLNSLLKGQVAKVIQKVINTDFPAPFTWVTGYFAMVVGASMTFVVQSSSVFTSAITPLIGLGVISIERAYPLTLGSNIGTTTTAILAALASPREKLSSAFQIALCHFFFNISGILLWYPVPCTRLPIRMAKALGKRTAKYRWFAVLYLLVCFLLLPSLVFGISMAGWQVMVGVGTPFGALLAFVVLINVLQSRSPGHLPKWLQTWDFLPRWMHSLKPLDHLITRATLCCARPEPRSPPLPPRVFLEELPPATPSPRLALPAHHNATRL
In words: flow cytometry on HEK293 cells expressing human Napi2a-mCherry (panel Napi2a-HEK293), MFI ratio to the non-specific binding control. A general note: Flow cytometry measures light scatter and fluorescence of single cells or particles in a stream.

Experiment [2] concerns the target T2, human NaPi2b on NaPi2b-positive cell lines OVCAR-3 and HCC-78 (human, UniProt O95436 1-690).
T2 sequence: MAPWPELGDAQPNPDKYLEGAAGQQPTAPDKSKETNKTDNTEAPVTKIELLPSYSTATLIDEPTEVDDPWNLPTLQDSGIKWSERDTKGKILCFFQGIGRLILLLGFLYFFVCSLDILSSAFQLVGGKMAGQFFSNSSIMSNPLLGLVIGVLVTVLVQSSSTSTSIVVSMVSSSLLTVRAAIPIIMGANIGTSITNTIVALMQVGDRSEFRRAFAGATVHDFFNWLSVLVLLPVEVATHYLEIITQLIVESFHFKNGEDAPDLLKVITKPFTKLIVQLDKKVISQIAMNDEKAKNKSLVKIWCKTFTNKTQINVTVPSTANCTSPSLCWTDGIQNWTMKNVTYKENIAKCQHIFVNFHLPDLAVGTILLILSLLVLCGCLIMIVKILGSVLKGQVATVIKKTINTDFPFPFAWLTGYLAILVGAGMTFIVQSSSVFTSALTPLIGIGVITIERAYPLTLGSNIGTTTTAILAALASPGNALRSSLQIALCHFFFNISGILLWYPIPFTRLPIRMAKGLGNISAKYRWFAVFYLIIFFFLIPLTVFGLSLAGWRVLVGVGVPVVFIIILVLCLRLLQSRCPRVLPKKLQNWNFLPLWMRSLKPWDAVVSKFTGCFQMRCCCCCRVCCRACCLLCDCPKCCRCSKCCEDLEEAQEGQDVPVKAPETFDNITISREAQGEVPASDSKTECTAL
Briefly: cell-based or functional assay.

Experiment [3] deals with T3, human Napi2c-mCherry on HEK293 cells (human, UniProt Q8N130 1-599).
T3 construct: whole, on cells; also called Napi2c (SLC34A3); not shown: mCherry fusion
T3 sequence (looked up): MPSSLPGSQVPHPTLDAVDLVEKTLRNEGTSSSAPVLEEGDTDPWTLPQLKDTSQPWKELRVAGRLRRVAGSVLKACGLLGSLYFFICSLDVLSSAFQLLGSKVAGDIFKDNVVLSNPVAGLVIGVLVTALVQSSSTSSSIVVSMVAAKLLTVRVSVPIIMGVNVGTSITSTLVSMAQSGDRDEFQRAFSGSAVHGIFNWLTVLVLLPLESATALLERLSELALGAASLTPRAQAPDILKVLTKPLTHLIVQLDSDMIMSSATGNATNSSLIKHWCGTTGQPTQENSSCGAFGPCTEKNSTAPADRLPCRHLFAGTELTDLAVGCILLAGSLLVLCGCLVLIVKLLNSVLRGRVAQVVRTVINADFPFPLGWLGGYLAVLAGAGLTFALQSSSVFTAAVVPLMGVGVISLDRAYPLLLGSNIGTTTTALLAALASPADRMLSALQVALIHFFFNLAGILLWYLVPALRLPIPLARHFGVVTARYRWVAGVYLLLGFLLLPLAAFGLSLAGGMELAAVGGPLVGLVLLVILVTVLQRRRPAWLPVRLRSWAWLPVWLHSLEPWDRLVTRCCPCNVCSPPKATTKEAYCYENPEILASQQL
In words: flow cytometry on HEK293 cells expressing human Napi2c-mCherry (panel Napi2c-HEK293), MFI ratio to the non-specific binding control.

The next experiment has as its target T4, FcγRIIIa (CD16) (V158) (Homo sapiens, UniProt P08637).
T4 construct: m21 joins both polymorphic variants; also called V158 variant of m21
In words: Lumit FcγRIIIa (V158) Binding Immunoassay (Promega), left panel FcγRIIIa (CD16) (V158), competition with Tracer-LgBiT for FcγR-SmBiT, falling luminescence means binding, n=1.

For another experiment, the target named is T5, FcγRIIa (CD32) (H131) (Fused to the SmBiT luciferase fragment (Promega Lumit reagent), not carried in the letters).
T5 construct: m20 joins both polymorphic variants; also called H131 variant of m20; not shown: SmBiT tag (and any linker or purification tag) of Promega's FcγR-SmBiT fusion
T5 chain: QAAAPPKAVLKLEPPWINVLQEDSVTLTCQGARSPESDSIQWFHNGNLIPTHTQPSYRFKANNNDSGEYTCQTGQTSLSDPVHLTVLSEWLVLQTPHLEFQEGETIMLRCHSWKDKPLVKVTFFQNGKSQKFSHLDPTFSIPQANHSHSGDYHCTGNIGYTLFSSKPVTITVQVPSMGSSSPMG
In words: Lumit FcγRIIa (H131) Binding Immunoassay (Promega), left panel FcγRIIa (CD32) (H131), competition with Tracer-LgBiT for FcγR-SmBiT, n=1.

In the next experiment the target is T6, FcγRIIIa (CD16) (F158) (Homo sapiens, UniProt P08637).
T6 construct: m21 joins both polymorphic variants; also called F158 variant of m21
Briefly: Lumit FcγRIIIa (F158) Binding Immunoassay (Promega), right panel FcγRIIIa (CD16) (F158), competition with Tracer-LgBiT for FcγR-SmBiT, falling luminescence means binding, n=1.

Experiment [4] addresses T7, human Napi2b-mCherry on HEK293 cells (human, UniProt O95436 1-690).
T7 construct: also called Napi2b (SLC34A2); HEK293 cells overexpressing Napi2b
T7 sequence: T2 sequence
In words: flow cytometry on HEK293 cells expressing human Napi2b-mCherry (panel Napi2b-HEK293), Alexa-dye anti-human IgG H+L secondary antibody, MFI ratio to the non-specific binding control.

Experiment [5] concerns the target T8, recombinant human FcγRI (FcγR-SmBiT, Lumit assay) (human, UniProt P12314 16-292).
T8 construct: Kit reagent (Promega); also called FcγRI (CD64); not shown: SmBiT label of the kit
Briefly: Lumit FcγRI Binding Immunoassay (Promega), competition with Tracer-LgBiT for FcγRI-SmBiT, falling luminescence means binding, n=1.

T4 sequence (P08637 17-208 F176V limits assumed): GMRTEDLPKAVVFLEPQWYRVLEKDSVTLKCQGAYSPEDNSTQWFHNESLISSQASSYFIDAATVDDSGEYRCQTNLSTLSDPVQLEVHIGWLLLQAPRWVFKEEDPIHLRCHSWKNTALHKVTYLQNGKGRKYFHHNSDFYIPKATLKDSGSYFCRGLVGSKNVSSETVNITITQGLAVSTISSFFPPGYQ
T6 sequence (P08637 17-208 limits assumed): as the sequence (P08637 17-208 F176V limits assumed) above, with V160F counted along it
T8 sequence (P12314 16-292): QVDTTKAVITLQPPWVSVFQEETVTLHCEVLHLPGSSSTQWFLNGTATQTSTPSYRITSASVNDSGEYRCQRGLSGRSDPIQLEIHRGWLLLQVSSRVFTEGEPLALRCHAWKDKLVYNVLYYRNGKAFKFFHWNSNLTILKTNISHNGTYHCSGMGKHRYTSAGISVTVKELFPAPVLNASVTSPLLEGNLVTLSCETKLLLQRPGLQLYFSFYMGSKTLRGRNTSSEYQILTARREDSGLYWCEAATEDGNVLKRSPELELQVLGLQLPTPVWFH

B1: AV25-P5(PEG24)-VC-PAB-Exatecan DAR8 ADC (antibody, human IgG1, kappa, L234A L235A)
heavy: not shown
light: DIQMTQSPSSLSASVGDRVTITCSASQDIGNFLNWYQQKPGKTVKVLIYYASSLYSGVPSRFSGSGSGTDYTLTISSLQPEDFATYYCQQYSKLPLTFGQGTKLELKRTVAAPSVFIFPPSDEQLKSGTASVVCLLNNFYPREAKVQWKVDNALQSGNSQESVTEQDSKDSTYSLSSTLTLSKADYEKHKVYACEVTHQGLSSPVTKSFNRGEC
modifications: P5(PEG24)-VC-PAB-Exatecan linker-payload on the interchain cysteine (1 per light chain, DAR8); P5(PEG24)-VC-PAB-Exatecan linker-payload on interchain cysteines (up to 3 per heavy chain, DAR8)
notes: also called TUB-040
Usually EC50 (read off the curve) stands for the midpoint of the concentration-response curve. Turning to B1, the binding result in experiment [1] was “no binding (tested: 200 nM)”; in experiment [3], “no binding (tested: 200 nM)”; in the experiment with FcγRIIIa (CD16) (V158), “binds”; with FcγRIIa (CD32) (H131), “no binding”; with FcγRIIIa (CD16) (F158) it was “binds”; in experiment [5], “binds”. Further, the “IC50 of cytotoxicity (resazurin assay, 7 days) on HCC-78, against the anti-Napi2b comparison ADC” value in experiment [2] came out at 15.5 fold lower IC50. The “EC50 (read off the curve)” value in experiment [4] is approximately 0.9 nM.
